The supplement of paper PMC10126150
± gives the standard deviation of the averaged measurements.

test system: ATP; assay: switch fluorescence ratio, 500 uM ATP over buffer (Cy3 cluster intensity, sum of 5 cycles each) (fold (ratio)); higher = stronger signal-on switching upon ATP binding; sequences stand for … in TCGTCGGCAGCGTCAGATGTGTATAAGAGACAGTTTTTTTTTTTTTTTTTTTTTTTTT…TC; details: aptamer strand: ATP DNA aptamer (quencher-CACCTGGGGGAGTATTGCGGAGGAAGG + anchor), 100 nM annealed; ATP concentration: 500 uM
Method in brief: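 The quencher-labelled ATP aptamer, at 100 nM, was annealed to Cy3-labelled switching-strand clusters on a modified Illumina MiSeq flow-cell. The clusters were imaged in selection buffer, then after 15 min with 500 uM ATP at 22 °C, and this buffer/ATP cycle ran five times with NaOH stripping and re-annealing between runs. Per-cluster fluorescence ratios, summed target-cycle over summed buffer-cycle Cy3 intensity, were averaged per switch-domain sequence. Clusters outside 100-1000 RFU were excluded.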
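Also: ATP exposure 15 min at 22 °C before imaging.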

In order of falling switch fluorescence ratio:
1. ATTGGCAATA  2.36 ± 1.9
2. TCCGTCAATG  1.63 ± 0.07
3. TCTTCTACCT  1.2 ± 0.022
4. CCTTACAGCT  1.2 ± 0.044
5. ACTAAATCCT  1.19 ± 0.02
6. ACTTTGCATT  1.19 ± 0.038
7. TCCATAATAG  1.16 ± 0.028
8. GAAAGACGCT  1.15 ± 0.3
9. AAGGGTTATT  1.15 ± 0.16
10. AAACTACTAC  1.147 ± 0.0017
11. CGGTGGTGGC  1.13 ± 0.015
12. GATTTTGCCG  1.11 ± 0.1
13. TTGAGCGGTC  1.1 ± 0.022
14. TACCTGGTAC  1.056 ± 0.0043
15. CGCGTGGATC  1.06 ± 0.047
16. TCGCTTACAT  1.0488 ± 0.00048
17. GCCGGTCGTC  1.0461 ± 0.00046
18. TTCCTATCGT  1.046 ± 0.0022
19. TACGGATTAG  1.051 ± 0.0051
20. TTTGCCTCGT  1.04 ± 0.025
21. TGCAGGGAGT  1.04 ± 0.037
22. GTTGGGGTGG  1.04 ± 0.12
23. TACCGGATGG  1.03 ± 0.021
24. AGGCGCGTGG  1.03 ± 0.013
25. TAAGGACATT  1.03 ± 0.015
26. CAGTGACGGT  1.03 ± 0.021
27. TTTTGTTGAT  1.03 ± 0.052
28. CGCGCAGTCG  1.032 ± 0.003
29. CGGGCTTGG  1.03 ± 0.021
30. ACTGCGGGTC  1.031 ± 0.0063
31. TTCTTTCGAG  1.026 ± 0.0045
32. CGGTGCATGA  1.027 ± 0.0092
33. ATGATTCAGC  1.03 ± 0.083
34. GCGCTTGGGA  1.03 ± 0.056
35. CTAAAATGAA  1.03 ± 0.018
36. GTTCCCGGGA  1.028 ± 0.0024
37. GCGTGTATGG  1.03 ± 0.03
38. TACTCATTGC  1.03 ± 0.067
39. TTCATTGGTA  1.0186 ± 0.00056
40. ATTGATGT  1.0234 ± 0.00096
41. CTGTATATCT  1.02 ± 0.022
42. GATGGGGATA  1.02 ± 0.013
43. AGTTACATTG  1.02 ± 0.041
44. GGATGTTATG  1.016 ± 0.0078
45. AAATTGGACT  1.02 ± 0.033
46. GAGGCTGATA  1.02 ± 0.013
47. CGGTGATTTT  1.02 ± 0.03
48. TAGTTTATGT  1.012 ± 0.0056
49. GACTTTTGGG  1.01 ± 0.033
50. TTTTCAACGG  1.01 ± 0.0017
51. CGTATTAGAG  1.01 ± 0.048
52. GGGAGTAGCC  1.01 ± 0.059
53. TCGTGTATGT  1.014 ± 0.0039
54. TTCGAACGGG  1.01 ± 0.016
55. TTTGGGGTCT  1.01 ± 0.1
56. TTGCTACAGT  1.01 ± 0.019
57. TGGATTTACT  1.01 ± 0.031
58. GTTAAAGCAT  1.01 ± 0.03
59. TAGCGGTTCG  1.01 ± 0.034
60. TCTGGGGAGT  1.01 ± 0.043
61. ATCACGTCGG  1.014 ± 0.0093
62. TTACGGTAGG  1.01 ± 0.075
63. AGTTTGGGTT  1.01 ± 0.073
64. AAACGATTTC  1.01 ± 0.019
65. TGTTTTATAT  1.01 ± 0.021
66. GTGGGCGATT  1.01 ± 0.024
67. TCGGTGGGTG  1.012 ± 0.0066
68. TGACCGATCA  1 ± 0.021
69. ATTGAGTTCT  1 ± 0.012
70. ACGGTCGCGT  1 ± 0.012
71. GGGGGGGGTT  1 ± 0.042
72. TTATCTGGAT  1 ± 0.022
73. CAGTAGGTGG  1 ± 0.028
74. TATCAGGGGA  1 ± 0.075
75. TTGCTATCAG  1 ± 0.047
76. GGAGGCGGAG  1.002 ± 0.0077
77. AGATTTTTAA  1.004 ± 0.0097
78. GATGGGGGTT  1 ± 0.012
79. TTGTATGGGA  1.001 ± 0.0069
80. AAACGGGGGC  1 ± 0.085
81. TTACTCTGGG  1.003 ± 0.0032
82. GCTTGAGGAG  1 ± 0.009
83. TCGTGGGGAT  1 ± 0.021
84. ATGTTAAATG  1 ± 0.016
85. CCAGGGCGCG  1.004 ± 0.002
86. TGAGTGTTAC  1 ± 0.028
87. TTGCGGTTGG  1 ± 0.076
88. AATATATTTT  0.999 ± 0.047
89. AATTTCACCA  0.999 ± 0.013
90. TTTTGGGTC  0.999 ± 0.034
91. GAAGGGGGGG  0.999 ± 0.042
92. GAATTTATAT  0.998 ± 0.0032
93. AGGGGCATGG  0.998 ± 0.04
94. GTGGGTAACT  0.998 ± 0.041
95. GATTTTTTCG  0.997 ± 0.01
96. CCTATGGTTG  0.997 ± 0.033
97. AAATGGCCGG  0.996 ± 0.024
98. ATAGGAAGGG  0.996 ± 0.019
99. GGTCACTGCG  0.9955 ± 0.0064
100. TTGGTTCGTT  0.994 ± 0.025
101. TTGAGATCCA  0.9929 ± 0.0085
102. TGTGGTCGGG  0.993 ± 0.038
103. AAGGGGTCT  0.992 ± 0.024
104. CTTTTGGGGT  0.991 ± 0.01
105. AAAGTCCTAG  0.99 ± 0.016
106. TGGGATAACT  0.99 ± 0.038
107. ATTTTGTATT  0.99 ± 0.034
108. ATAAGTTTTA  0.989 ± 0.0099
109. TGTGGGTTTA  0.988 ± 0.033
110. CGGGGTTGTT  0.9882 ± 0.0067
111. GGGGAGAGGA  0.987 ± 0.037
112. GATATCCCGG  0.987 ± 0.022
113. CAAGAAAGTG  0.9875 ± 0.0071
114. TGGTTCAGCC  0.9868 ± 0.0033
115. ATTTATGGGT  0.987 ± 0.029
116. GGTGTTGAAG  0.986 ± 0.044
117. GGGATATGGT  0.986 ± 0.019
118. AGCGTTCAGC  0.9849 ± 0.0026
119. GATCGAAGTT  0.984 ± 0.033
120. GTGTTTTTGG  0.983 ± 0.022
121. TTTTAATGAT  0.983 ± 0.024
122. TTTTTTGT  0.982 ± 0.021
123. GTGTTAACGG  0.982 ± 0.017
124. TGGGAGACAA  0.9815 ± 0.001
125. ATTAGAAAGC  0.981 ± 0.039
126. CAATTTTGCT  0.98 ± 0.019
127. TTAGTCTTGA  0.9796 ± 0.0028
128. TTTCTAAATC  0.979 ± 0.01
129. CTCGTTATGT  0.9782 ± 0.0065
130. GAGAATTATA  0.978 ± 0.019
131. CCAGTCGGAG  0.9776 ± 0.0038
132. TTAGTCGATA  0.9767 ± 0.0021
133. TAAGTACTTT  0.977 ± 0.025
134. TGGCAGGAAT  0.9766 ± 0.0014
135. CTGGGGAGTG  0.977 ± 0.029
136. ATTTGGGGAA  0.976 ± 0.021
137. GTGGTCGTGC  0.9761 ± 0.0041
138. GTGTTAGAAG  0.9749 ± 0.0015
139. GTGGTGGGTC  0.975 ± 0.026
140. CGAACTGAAG  0.975 ± 0.026
141. GTTTTTCTGG  0.9738 ± 0.0078
142. GTAAGGGGGT  0.9731 ± 0.0091
143. TGTGATTCTA  0.972 ± 0.017
144. TTGAAGAAGT  0.9724 ± 0.0095
145. GGGAGGAGTT  0.9689 ± 0.0067
146. TTCGGTGTTG  0.969 ± 0.045
147. TTACGGGCGC  0.9684 ± 0.0086
148. GATCTCAGAG  0.967 ± 0.014
149. TTGTGGAATT  0.966 ± 0.02
150. GGTTGAACAT  0.9661 ± 0.0027
151. AAGGTTGGGA  0.962 ± 0.039
152. CATGGAAGGC  0.957 ± 0.03
153. CTATCTGTTT  0.9561 ± 0.002
154. GATGTGTCCG  0.956 ± 0.086
155. AAGTTTTCTC  0.951 ± 0.0028
156. CGGGTGCGGT  0.951 ± 0.045
157. GCGTTGGGCT  0.949 ± 0.016
